# Results published in publication PMC3060787.
# Where two headings read alike, the source gives them in different places.
# T1: Taq MutS(C42A,T469C)-Cy3 (Thermus aquaticus, UniProt Q56215 1-811, C42A;T469C)
# T1 sequence: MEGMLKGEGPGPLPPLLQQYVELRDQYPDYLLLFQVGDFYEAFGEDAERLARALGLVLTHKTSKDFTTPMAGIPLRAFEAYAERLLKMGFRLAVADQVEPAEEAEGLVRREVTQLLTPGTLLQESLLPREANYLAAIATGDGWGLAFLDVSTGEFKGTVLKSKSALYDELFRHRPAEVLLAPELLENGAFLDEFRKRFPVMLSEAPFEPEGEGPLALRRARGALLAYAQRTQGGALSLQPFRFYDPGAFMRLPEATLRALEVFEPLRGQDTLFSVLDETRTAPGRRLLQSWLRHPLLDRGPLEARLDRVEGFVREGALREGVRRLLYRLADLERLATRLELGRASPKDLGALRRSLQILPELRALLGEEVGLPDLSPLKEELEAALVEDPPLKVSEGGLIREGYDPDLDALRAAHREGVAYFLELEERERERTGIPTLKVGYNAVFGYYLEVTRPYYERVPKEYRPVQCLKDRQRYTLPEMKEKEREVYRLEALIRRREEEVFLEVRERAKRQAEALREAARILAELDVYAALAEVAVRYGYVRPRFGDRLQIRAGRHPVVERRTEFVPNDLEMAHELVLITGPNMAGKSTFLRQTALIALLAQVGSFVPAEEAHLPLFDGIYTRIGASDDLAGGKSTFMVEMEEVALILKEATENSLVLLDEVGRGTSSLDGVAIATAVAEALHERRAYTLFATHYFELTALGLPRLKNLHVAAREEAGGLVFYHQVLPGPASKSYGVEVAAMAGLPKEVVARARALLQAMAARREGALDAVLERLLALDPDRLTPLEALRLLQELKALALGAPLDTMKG
# B1: 100 bp duplex (dsDNA)
# DNA 1: GTTACCGATACGATACGAATAGGCATATCTGCACGTTTCTCACGAGGCGCCGCTAGACTGATCTGGAGCTTAATTGCCTGCCGGAGCTAAAGACGTTCCA
# DNA 2: TGGAACGTCTTTAGCTCCGGCAGGCAATTAAGCTCCAGATCAGTCTAGCGGCGCCTCGTGAGAAACGTGCAGATATGCCTATTCGTATCGTATCGGTAAC
# modifications: amino-C6 dT (Cy5 site)
# B2: 100 bp +dT mismatch DNA (100/101 nt) (dsDNA)
# DNA 1: B1 DNA 1
# DNA 2: TGGAACGTCTTTAGCTCCGGCAGGCAATTAAGCTCCAGATCAGTCTAGCGTGCGCCTCGTGAGAAACGTGCAGATATGCCTATTCGTATCGTATCGGTAAC
# modifications: amino-C6 dT (Cy5 site)
# B3: 74 bp duplex, both ends blocked (dsDNA)
# DNA 1: ATTCAGCTGTACCCAATTCACTCTACGACGAGGCGTCGCTAGCGTCGCATCCTGCTGTAAGTTTCATGTCCACC
# DNA 2: GGTGGACATGAAACTTACAGCAGGATGCGACGCTAGCGACGCCTCGTCGTAGAGTGAATTGGGTACAGCTGAAT
# modifications: amino-C6 dT (Cy5 site)
# B4: +dT mismatch DNA (74/75 nt), both ends blocked (dsDNA)
# DNA 1: B3 DNA 1
# DNA 2: GGTGGACATGAAACTTACAGCAGGATGCGACGCTAGCGTACGCCTCGTCGTAGAGTGAATTGGGTACAGCTGAAT
# modifications: amino-C6 dT (Cy5 site, nt 45 from 5' biotin)
# B5: +dT mismatch DNA with dT10 ssDNA tail (74/85 nt) (dsDNA)
# DNA 1: B3 DNA 1
# DNA 2: TTTTTTTTTTGGTGGACATGAAACTTACAGCAGGATGCGACGCTAGCGTACGCCTCGTCGTAGAGTGAATTGGGTACAGCTGAAT
# modifications: amino-C6 dT (Cy5 site)
# Tests used:
# Experiment in all cases: smFRET
# Taq MutS(C42A,T469C)-Cy3 [1] = target: T1, Taq MutS(C42A,T469C)-Cy3
# Taq MutS(C42A,T469C)-Cy3 [2] = target: T1, Taq MutS(C42A,T469C)-Cy3; remark: listed apart in the source
# Taq MutS(C42A,T469C)-Cy3 [3] = target: T1, Taq MutS(C42A,T469C)-Cy3; remark: listed apart in the source
# Taq MutS(C42A,T469C)-Cy3 [4] = target: T1, Taq MutS(C42A,T469C)-Cy3; remark: listed apart in the source
binder,measurement,setting,value
B1,binding result,"Taq MutS(C42A,T469C)-Cy3 [1]",binds
B2,binding result,"Taq MutS(C42A,T469C)-Cy3 [1]",binds
B3,Kd,"Taq MutS(C42A,T469C)-Cy3 [2]",128 ± 12 nM
B4,Kd,"Taq MutS(C42A,T469C)-Cy3 [3]",16.2 ± 2.1 nM
B5,binding result,"Taq MutS(C42A,T469C)-Cy3 [4]",binds
